In article doi:10.1101/2021.09.03.458953:
Read-outs that look alike come from different tables or passages of the source.

Legend:
[1] = molecular target: Sarbecovirus (SARS-CoV-2 / SARS-CoV) spike C-terminal hepta-peptide, wild type (UniProt P0DTC2); conditions: pH 7.5; 25°C; 150 mM NaCl
[2] = molecular target: Sarbecovirus (SARS-CoV-2 / SARS-CoV) spike C-terminal hepta-peptide, wild type (UniProt P0DTC2); conditions: pH 6.5; 25°C; 150 mM NaCl
[3] = molecular target: Sarbecovirus (SARS-CoV-2 / SARS-CoV) spike C-terminal hepta-peptide, wild type (UniProt P0DTC2); conditions: pH 7.5; 25°C; 150 mM NaCl; remark: listed apart in the source

**Q.** With “Coatomer subunit alpha N-terminal WD40 domain (alphaCOPI-WD40) L181K;L185K;I192K;L196K;F197K” as the substance, how does the “equilibrium KD” value [1] read?
**A.** 4.17 ± 0.04 µM

**Q.** And the “equilibrium KD” value [2]?
**A.** 1.40 ± 0.15 µM

**Q.** What about the “kinetic KD” value [3] of the same substance?
**A.** 2.75 ± 0.09 µM
